Laboratory results reported in patent US6800738.

What was measured:
[1] = molecular target: p185^HER2 on cells (SK-BR-3 human breast tumor cells; WI-38 cells) (human, UniProt P04626 23-1255); assay: cell-based or functional assay
[2] = molecular target: T1, p185^HER2 ECD (secreted form of the extracellular domain of p185^HER2) (human, UniProt P04626 23-652); assay: solution equilibrium with p185HER2 ECD, free antibody by ELISA on immobilized ECD (Friguet method)
T1 construct: extracellular domain; also called HER2 extracellular domain

[3] = molecular target: T1, p185^HER2 ECD (secreted form of the …); assay: ratio of Kd values, solution equilibrium/ELISA

B1: huMAb4D5-2 (antibody, name in Kabat numbering, V domains shown)
VH: EVQLVESGGGLVQPGGSLRLSCAASGFNIKDTYIHWVRQAPGKGLEWVARIYPTNGYTRYADSVKGRFTISADDSKNTLYLQMNSLRAEDTAVYYCARWGGDGFYAMDVWGQGTLVTVSS
VL: not shown
- Relative cell proliferation of SK-BR-3 cells, 96 hr, 8 ug/ml antibody [1]: 101 % of untreated control
- Kd [2]: 4.7 nM
- fold increase in affinity over huMAb4D5-1 [3]: 5 fold
